Some targets named below: MELK(h) (human) (UniProt Q14680); Lck(h) activated (human) (UniProt P06239); NEK6(h) (human) (UniProt Q9HC98); CaMKIIδ(h) (human) (UniProt Q13557); Rsk2(h) (human) (UniProt P51812); MRCKα(h) (human) (UniProt Q5VT25); DYRK2(h) (human) (UniProt Q92630); PKCβI(h) (human) (UniProt P05771); PDGFRα(D842V)(h) (human) (UniProt P16234); MAPKAP-K2(h) (human) (UniProt P49137); cKit(V560G)(h) (human) (UniProt P10721); Abl(T315I)(h) (human) (UniProt P00519); PRAK(h) (human) (UniProt Q8IW41); SRPK2(h) (human) (UniProt P78362); STK33(h) (human) (UniProt Q9BYT3); SAPK2a(T106M)(h) (human) (UniProt Q16539); Lck(h) (human) (UniProt P06239); CDK6/cyclinD3(h) (human) (UniProt Q00534).

Holding throughout (assay): cell-based or functional assay
The target of the next assay is T1, EphA3(h) (human) (UniProt P29320).
T1 sequence (looked up): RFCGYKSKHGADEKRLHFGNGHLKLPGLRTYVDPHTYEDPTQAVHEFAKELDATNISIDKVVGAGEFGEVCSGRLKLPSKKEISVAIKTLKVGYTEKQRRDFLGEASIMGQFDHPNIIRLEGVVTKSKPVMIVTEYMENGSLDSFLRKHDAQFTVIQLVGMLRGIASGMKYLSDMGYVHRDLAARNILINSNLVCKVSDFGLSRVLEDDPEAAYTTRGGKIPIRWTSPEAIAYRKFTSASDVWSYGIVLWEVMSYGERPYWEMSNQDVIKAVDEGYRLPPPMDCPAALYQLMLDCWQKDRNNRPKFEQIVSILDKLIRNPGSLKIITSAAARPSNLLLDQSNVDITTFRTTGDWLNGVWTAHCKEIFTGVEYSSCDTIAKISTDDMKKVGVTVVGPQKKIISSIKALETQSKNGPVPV

The target in the next assay is T2, TAO3(h) (human) (UniProt Q9H2K8).
T2 sequence (looked up): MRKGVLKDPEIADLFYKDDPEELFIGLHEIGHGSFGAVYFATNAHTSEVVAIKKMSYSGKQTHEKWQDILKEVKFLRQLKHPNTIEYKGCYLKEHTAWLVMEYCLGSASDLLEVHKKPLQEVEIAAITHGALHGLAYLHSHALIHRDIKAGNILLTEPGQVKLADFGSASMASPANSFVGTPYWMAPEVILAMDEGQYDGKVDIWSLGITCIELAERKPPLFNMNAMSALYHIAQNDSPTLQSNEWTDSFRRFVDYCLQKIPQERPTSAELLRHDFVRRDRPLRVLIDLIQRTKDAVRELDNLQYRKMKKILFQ

For another assay, the target named is T3, BrSK1(h) (human) (UniProt Q8TDC3).
T3 sequence (looked up): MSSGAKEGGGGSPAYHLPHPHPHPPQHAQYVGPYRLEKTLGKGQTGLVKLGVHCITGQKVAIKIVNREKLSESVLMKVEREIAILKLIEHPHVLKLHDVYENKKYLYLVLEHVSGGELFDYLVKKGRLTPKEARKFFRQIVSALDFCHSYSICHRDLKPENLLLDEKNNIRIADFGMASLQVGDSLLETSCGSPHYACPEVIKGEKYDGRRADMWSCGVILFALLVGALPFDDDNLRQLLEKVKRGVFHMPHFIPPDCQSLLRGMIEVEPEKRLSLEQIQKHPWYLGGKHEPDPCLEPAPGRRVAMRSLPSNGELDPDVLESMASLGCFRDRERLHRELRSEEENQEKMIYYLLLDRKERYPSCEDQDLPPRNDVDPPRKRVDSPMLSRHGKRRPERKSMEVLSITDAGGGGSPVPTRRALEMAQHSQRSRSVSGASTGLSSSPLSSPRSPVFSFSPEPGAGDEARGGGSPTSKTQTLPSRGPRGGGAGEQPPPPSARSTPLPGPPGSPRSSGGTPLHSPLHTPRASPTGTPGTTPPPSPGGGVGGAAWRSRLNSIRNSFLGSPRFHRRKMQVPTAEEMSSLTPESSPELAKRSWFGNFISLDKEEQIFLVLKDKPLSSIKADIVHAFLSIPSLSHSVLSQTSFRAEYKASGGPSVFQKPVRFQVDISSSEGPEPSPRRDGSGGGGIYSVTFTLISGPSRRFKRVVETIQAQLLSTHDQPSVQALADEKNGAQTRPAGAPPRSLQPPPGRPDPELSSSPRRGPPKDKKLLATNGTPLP

For another assay, the target named is T4, TAO1(h) (human) (UniProt Q7L7X3).
T4 sequence (looked up): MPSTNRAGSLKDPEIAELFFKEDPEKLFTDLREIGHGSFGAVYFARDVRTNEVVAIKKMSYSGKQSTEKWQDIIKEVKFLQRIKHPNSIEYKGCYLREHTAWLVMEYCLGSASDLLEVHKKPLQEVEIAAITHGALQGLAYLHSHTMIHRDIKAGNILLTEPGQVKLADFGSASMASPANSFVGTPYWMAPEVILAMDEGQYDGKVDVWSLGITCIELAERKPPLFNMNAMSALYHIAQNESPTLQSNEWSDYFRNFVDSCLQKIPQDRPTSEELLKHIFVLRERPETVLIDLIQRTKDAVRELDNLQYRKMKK

Chain of MAPKAP-K2(h) (human) (P49137 46-400 limits assumed): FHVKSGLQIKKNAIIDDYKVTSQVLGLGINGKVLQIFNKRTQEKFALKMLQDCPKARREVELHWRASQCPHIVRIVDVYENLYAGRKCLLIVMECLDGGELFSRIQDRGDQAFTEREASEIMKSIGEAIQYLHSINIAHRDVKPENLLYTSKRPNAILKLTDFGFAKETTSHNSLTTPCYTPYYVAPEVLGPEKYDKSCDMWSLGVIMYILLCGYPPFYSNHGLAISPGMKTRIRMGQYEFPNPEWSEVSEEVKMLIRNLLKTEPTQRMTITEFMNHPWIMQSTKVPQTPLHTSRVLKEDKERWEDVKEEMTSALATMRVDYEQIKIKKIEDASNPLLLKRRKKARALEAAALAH
Chain of cKit(V560G)(h) (human) (P10721 544-976 V560G): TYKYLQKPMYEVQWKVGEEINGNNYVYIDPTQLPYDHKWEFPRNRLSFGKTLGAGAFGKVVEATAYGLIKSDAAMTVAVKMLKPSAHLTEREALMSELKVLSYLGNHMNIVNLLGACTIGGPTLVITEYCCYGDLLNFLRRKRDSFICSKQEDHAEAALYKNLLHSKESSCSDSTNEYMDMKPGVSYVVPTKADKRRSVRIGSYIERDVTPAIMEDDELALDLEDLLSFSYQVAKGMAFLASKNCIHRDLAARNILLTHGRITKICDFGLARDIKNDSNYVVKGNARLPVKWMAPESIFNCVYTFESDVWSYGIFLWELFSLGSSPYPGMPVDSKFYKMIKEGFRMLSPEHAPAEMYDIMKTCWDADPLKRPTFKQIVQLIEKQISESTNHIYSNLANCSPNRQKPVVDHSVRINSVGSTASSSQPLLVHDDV
Chain of SRPK2(h) (human) (P78362 whole entry): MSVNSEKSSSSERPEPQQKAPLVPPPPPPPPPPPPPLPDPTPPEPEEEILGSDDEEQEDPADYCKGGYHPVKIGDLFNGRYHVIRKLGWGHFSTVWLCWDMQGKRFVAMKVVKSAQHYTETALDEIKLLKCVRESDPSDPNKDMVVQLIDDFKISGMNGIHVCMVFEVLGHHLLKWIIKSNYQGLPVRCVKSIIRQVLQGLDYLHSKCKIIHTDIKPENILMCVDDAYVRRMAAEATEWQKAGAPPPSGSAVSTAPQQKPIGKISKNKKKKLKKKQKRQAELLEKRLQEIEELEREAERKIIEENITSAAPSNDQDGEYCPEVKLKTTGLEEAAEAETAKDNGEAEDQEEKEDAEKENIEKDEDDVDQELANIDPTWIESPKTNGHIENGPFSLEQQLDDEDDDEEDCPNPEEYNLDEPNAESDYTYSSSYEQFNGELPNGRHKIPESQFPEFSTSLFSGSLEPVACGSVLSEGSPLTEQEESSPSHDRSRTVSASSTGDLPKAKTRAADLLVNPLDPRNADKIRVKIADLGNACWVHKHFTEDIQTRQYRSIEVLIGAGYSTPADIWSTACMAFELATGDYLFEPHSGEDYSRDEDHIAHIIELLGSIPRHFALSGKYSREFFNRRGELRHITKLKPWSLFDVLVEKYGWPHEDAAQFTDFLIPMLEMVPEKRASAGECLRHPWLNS
Chain of CDK6/cyclinD3(h) (human) (Q00534 whole entry, chain 1 of 2): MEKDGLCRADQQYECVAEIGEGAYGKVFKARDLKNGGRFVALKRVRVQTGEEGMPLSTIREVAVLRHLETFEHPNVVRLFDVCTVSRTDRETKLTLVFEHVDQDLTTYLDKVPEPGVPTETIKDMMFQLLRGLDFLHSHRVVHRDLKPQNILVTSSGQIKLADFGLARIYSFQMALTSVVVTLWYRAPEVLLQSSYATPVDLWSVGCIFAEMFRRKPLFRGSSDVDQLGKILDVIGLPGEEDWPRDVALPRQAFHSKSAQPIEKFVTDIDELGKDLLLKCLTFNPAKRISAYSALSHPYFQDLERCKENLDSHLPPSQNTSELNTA
Chain of CDK6/cyclinD3(h) (human) (P30281 whole entry, chain 2 of 2, further chain): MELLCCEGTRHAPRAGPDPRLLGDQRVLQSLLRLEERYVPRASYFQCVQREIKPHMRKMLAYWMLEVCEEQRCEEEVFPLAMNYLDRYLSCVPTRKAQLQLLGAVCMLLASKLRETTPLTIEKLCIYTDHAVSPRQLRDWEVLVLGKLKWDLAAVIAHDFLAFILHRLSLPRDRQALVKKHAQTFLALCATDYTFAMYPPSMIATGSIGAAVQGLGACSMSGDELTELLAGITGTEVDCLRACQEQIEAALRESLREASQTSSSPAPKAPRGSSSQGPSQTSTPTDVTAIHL
Chain of CaMKIIδ(h) (human) (Q13557 whole entry, stated change not applied): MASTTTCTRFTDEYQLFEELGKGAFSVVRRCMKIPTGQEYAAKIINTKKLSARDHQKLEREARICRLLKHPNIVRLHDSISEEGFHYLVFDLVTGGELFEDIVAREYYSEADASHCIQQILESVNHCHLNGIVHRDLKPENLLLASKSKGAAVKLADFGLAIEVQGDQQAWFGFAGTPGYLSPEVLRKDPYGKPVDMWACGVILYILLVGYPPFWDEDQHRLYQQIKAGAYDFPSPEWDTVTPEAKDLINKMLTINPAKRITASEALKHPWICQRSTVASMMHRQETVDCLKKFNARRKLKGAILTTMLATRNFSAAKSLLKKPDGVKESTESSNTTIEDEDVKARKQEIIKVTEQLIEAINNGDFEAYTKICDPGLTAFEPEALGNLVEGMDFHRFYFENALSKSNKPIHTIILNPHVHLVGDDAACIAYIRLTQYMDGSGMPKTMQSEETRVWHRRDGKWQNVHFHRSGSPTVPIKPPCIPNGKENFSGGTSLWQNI
Chain of Abl(T315I)(h) (human) (P00519 27-1130 T315I limits assumed): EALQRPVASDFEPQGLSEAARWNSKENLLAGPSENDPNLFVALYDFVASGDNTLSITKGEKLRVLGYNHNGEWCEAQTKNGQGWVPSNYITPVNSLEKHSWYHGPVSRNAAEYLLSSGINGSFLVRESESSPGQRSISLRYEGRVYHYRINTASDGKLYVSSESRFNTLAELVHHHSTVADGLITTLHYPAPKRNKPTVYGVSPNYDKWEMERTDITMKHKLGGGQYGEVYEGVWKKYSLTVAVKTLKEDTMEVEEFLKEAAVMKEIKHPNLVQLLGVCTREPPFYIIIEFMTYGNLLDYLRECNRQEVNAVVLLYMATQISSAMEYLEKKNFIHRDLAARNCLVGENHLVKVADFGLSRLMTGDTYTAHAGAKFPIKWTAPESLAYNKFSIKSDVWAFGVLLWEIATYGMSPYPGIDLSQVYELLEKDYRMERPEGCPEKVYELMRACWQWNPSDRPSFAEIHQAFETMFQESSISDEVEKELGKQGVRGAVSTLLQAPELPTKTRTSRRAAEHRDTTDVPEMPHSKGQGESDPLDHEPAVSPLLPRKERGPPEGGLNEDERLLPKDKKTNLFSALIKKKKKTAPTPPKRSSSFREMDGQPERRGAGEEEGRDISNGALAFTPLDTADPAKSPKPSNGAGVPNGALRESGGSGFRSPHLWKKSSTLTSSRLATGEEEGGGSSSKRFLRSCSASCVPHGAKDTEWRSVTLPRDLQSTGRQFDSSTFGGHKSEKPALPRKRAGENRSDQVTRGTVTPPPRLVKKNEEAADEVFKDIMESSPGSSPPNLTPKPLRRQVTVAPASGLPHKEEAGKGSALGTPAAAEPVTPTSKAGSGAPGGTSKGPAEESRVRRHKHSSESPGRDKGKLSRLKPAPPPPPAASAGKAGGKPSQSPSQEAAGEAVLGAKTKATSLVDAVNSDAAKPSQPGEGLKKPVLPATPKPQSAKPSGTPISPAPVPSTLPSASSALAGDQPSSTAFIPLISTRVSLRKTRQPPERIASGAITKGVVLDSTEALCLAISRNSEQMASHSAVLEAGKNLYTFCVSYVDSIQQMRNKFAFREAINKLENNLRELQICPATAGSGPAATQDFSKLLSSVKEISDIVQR
Chain of NEK6(h) (human) (Q9HC98 whole entry): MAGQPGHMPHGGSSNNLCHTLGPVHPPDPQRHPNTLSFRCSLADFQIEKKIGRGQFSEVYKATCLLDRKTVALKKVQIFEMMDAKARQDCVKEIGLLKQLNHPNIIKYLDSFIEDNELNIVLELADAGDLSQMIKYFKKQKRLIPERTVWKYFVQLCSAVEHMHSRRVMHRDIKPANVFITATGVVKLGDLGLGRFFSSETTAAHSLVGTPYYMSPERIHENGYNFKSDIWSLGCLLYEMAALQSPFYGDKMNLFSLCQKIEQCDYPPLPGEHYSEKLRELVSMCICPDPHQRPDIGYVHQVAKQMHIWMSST
Chain of Rsk2(h) (human) (P51812 whole entry): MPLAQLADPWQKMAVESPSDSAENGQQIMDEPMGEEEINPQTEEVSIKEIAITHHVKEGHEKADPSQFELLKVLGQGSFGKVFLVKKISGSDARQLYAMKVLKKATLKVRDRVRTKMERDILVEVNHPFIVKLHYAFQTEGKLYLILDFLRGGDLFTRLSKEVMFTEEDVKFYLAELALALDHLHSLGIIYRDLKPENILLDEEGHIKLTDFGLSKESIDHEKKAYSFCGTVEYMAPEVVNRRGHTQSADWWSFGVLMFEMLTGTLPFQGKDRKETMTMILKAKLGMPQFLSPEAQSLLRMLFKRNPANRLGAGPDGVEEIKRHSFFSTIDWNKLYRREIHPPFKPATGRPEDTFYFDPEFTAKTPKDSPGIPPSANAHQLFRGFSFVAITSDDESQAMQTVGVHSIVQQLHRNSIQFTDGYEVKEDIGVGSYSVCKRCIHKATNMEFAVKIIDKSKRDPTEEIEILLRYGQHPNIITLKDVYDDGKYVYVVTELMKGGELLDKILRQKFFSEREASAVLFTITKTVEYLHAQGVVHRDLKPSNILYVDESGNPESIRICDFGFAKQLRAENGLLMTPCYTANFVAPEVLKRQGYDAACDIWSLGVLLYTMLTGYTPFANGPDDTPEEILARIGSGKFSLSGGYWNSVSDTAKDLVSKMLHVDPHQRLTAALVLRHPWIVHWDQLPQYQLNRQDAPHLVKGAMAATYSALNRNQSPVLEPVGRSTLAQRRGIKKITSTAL

MMI-0500 (peptide): the % activity, 100 µM in the assay with EphA3(h) (human) is 33%; in the assay with MELK(h) (human) it was 0%; in the assay with Lck(h) activated (human) it was 76%; with NEK6(h) (human), 49%; in the assay with TAO3(h) (human) it was 12%; with CaMKIIδ(h) (human), 1%. The % activity, 100 µM with Rsk2(h) (human) stood at 14%; with MRCKα(h) (human) it was 5%; with DYRK2(h) (human), 127%; in the assay with PKCβI(h) (human), 1%; with PDGFRα(D842V)(h) (human) it was 170%; with MAPKAP-K2(h) (human), 9%. Moreover, the % activity, 100 µM stood at 198% with cKit(V560G)(h) (human); 16% with Abl(T315I)(h) (human); 95% with PRAK(h) (human); 72% in the assay with BrSK1(h) (human); 80% with SRPK2(h) (human); 16% with STK33(h) (human). The % activity, 100 µM amounted to 32% in the assay with SAPK2a(T106M)(h) (human), 359% in the assay with Lck(h) (human), 23% in the assay with CDK6/cyclinD3(h) (human) and 24% with TAO1(h) (human). This substance returned an inhibition of kinase activity at 100 µM with MAPKAP-K2(h) (human) greater than 65%.
